Reference: PMC8073056

Molecular target: purified full-length Arpin (N-terminal 6xHis-tagged) (human) (UniProt Q7Z6K5)
Test: SEC-MALS; purified Arpin and purified ARC4 of TNKS2 mixed; 15-mL KW-803 column (Shodex), dn/dc 0.183 mL/g

Substance ARC4 of TNKS2 (purified) has a stoichiometry N of 1.
